The values below come from paper PMC3871058.

The target in experiment [1] is Protein A (UniProt P38507). As to the kind of experiment: SPR; Protein A (0.25 mg/mL, 90 min) adsorbed to the gold surface of a Topas chip, blocked with 1 mg/mL BSA; 500 uL of 0.565 mg/mL IgG1 added for 90 min, rinsed with 10 mM Tris-HCl; plateaus in 10 mM Tris-HCl compared; measured together with EIS in one PDMS flow cell. In general terms: In SPR one partner is held on a chip, and binding of the other changes the refractive index at the surface.

Experiment [2] concerns the target Protein A (UniProt P38507). The experiment can be described thus: electrochemical impedance spectroscopy (EIS); Protein A (0.25 mg/mL, 90 min) adsorbed to the gold surface of a Topas chip, blocked with 1 mg/mL BSA; 500 uL of 0.565 mg/mL IgG1 added for 90 min, rinsed with 10 mM Tris-HCl; impedance at 251 Hz, AC amplitude 10 mV; measured together with SPR in one PDMS flow cell.

Consider immunoglobulin-G (IgG1) (antibody), for which, in experiment [1], the local minimum (RU) after IgG1 and the last rinse is 460 RU; the minimum shift, normalised to the initial value was found to be 35.3%. In addition, in experiment [2], the impedance at 251 Hz after IgG1 and the last rinse amounted to 51 kΩ; the increase in impedance, normalised to the initial value was determined as 18.6%.
